Data set [1] concerns the target T1, I-CreI_3115 chain 1;I-CreI_3115 chain 2 (;, UniProt P05725;P05725 1-163;1-163, Y33G;Q38K;Q44K;R68Y;R70S;D75N;I77Y;I132V|G19S;Y33V;Q38R;S40Q;Q44D;R68A;R70S;D75K …).
T1 sequence 1: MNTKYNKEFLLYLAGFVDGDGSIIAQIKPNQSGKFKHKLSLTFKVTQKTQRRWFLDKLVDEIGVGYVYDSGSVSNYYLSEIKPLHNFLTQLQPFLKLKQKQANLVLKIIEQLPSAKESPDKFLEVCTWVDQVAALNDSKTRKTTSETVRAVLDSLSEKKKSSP
T1 sequence 2: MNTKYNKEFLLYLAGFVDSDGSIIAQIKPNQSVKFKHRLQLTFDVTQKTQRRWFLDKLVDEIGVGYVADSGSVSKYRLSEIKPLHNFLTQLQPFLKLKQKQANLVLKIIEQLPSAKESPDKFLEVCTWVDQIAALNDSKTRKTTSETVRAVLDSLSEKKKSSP
Nature of the data set: MST; 2 mM CaCl2; labelled DNA; MST at 25 C: 50 mM Tris pH 8.0 (I-CreI_3115; 2 or 10 mM CaCl2) or 50 mM Hepes pH 7.5 (I-CreI_D75N; 10 mM CaCl2), 300 mM NaCl, 0.5 mM TCEP, 0.05% Tween-20. Particulars: protein: recombinant;recombinant; tags: ;; copies: 1;1; label: Cy5 on coding strand (5'); blunt.

The target in data set [2] is T2, I-CreI_D75N (UniProt P05725 1-163, D75N).
T2 sequence: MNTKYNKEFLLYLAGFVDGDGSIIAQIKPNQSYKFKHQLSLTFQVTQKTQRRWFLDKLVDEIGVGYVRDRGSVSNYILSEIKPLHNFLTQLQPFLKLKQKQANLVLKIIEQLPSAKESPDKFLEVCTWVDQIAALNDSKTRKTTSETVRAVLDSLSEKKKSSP
The data set can be described thus: crystal structure; 2 mM Ca2+; MST at 25 C: 50 mM Tris pH 8.0 (I-CreI_3115; 2 or 10 mM CaCl2) or 50 mM Hepes pH 7.5 (I-CreI_D75N; 10 mM CaCl2), 300 mM NaCl, 0.5 mM TCEP, 0.05% Tween-20. The note with it: protein: recombinant; chain copies: 2; blunt; self-annealed palindrome.

The target of data set [3] is T2, I-CreI_D75N. Nature of the data set: crystal structure; 2 mM Mg2+; uncleaved DNA; MST at 25 C: 50 mM Tris pH 8.0 (I-CreI_3115; 2 or 10 mM CaCl2) or 50 mM Hepes pH 7.5 (I-CreI_D75N; 10 mM CaCl2), 300 mM NaCl, 0.5 mM TCEP, 0.05% Tween-20. Particulars: protein: recombinant; chain copies: 2; blunt.

B1: I-CreI_3115_target (Cy5) (dsDNA)
DNA 1: TCAGACTTCTCCACAGGAGTCAGA
DNA 2: TCTGACTCCTGTGGAGAAGTCTGA
For B1, the Kd in data set [1] turned out to be 90 nM.

B2: I-CreI_D75N_target (dsDNA)
DNA 1: TCAAAACGTCGTACGACGTTTTGA
DNA 2: TCAAAACGTCGTACGACGTTTTGA
Regarding B2, the binding result with I-CreI_D75N [2] is given as “binds”.

B3: I-CreI_D75N_target-null (dsDNA)
DNA 1: TCAAAACTGCGTACGACGTTTTGA
DNA 2: TCAAAACGTCGTACGCAGTTTTGA
Consider B3, for which the binding result with I-CreI_D75N [3] is recorded as “binds”.

Values taken from PMC6035192, “Understanding the indirect DNA read-out specificity of I-CreI Meganuclease”.
